The values that follow come from PMC7276322.

The assay addresses CV30 (human). Put plainly: BLI.

The Kd is the free concentration of one partner at which half of the binding sites on the other are occupied at equilibrium, for simple one-to-one binding.

“SARS-CoV-2 receptor binding domain (from UniProt P0DTC2 319-591) (domain or fragment)” returned a Kd of 3.6 nM.
